Measurements from publication PMC6791878, “Evaluation of integrin αvβ6 cystine knot PET tracers to detect cancer and idiopathic pulmonary fibrosis” (Nature Communications, 2019).
Like-named read-outs stand apart in the source and are kept apart here.

Columns and labels:
clinical = conditions: human, iv, total radioactivity
Description: (§1) The administered dose was 55.5–96.2MBq (1.5–2.6 mCi). The scan (6 bed positions, 2 min bed^−1) covered an area that included the top of the skull to the middle of the femur. OSEM was applied for reconstruction. […] The CT scan (140 kV, 35 mA, pitch of 1:1, layer of 5 mm thickness; layer spacing of 3 mm, 512*512 matrix, field of view of 70 cm) also covered the top of the skull to the middle of the femur. […] Immediately upon completion of the first scan, the second whole-body static PET data was acquired. Sequentially, multiple whole-body static PET scans were acquired, one by one, from 0 to 75 min.
(§2) Upon co-registration of the PET and CT images, the CT images were used to determine regions of interest for the organs or tissues reported in the manuscript. These ROIs were applied to the PET images of the brain, pituitary gland, breast, lower and upper large intestine, small intestine, stomach, pancreas, heart wall, liver, lung, muscle, red marrow, bone, skin, and thyroid gland. For high uptake organs such as the kidneys, bladder and for the whole body, threshold-based segmentation of PET images were used to determine a close-fitting ROI around the entire organ or whole body. In order to determine accuracy, these PET-derived ROIs were compared to the CT overlay for a close match.

[1] = tested on: pancreatic, cervical and lung cancer; conditions: one patient, Fig 4C
Description: as §1, §2

For `CC[C@H](C)[C@@H]1NC(=O)[C@@H](NC(=O)CNC(=O)CCC(C(=O)O)N2CCN(CC(=O)O)CCN(CC(=O)O)CC2)CSSC[C@@H]2NC(=O)[C@H](C)NC(=O)CNC(=O)[C@@H]3CCCN3C(=O)[C@@H]3CSSC[C@@H](C(=O)NCC(N)=O)NC(=O)[C@H](Cc4ccc(O)cc4)NC(=O)CNC(=O)[C@H](CC(N)=O)NC(=O)CNC(=O)[C@H](CCCNC(=N)N)NC(=O)[C@H](CSSC[C@H](NC(=O)[C@H](CCCNC(=N)N)NC(=O)[C@H](Cc4ccccc4)NC(=O)[C@H](CC(C)C)NC(=O)[C@H](CC(C)C)NC(=O)[C@H]([C@@H](C)O)NC(=O)CNC(=O)[C@H](CC(C)C)NC(=O)[C@H](CC(=O)O)NC(=O)[C@H]([C@@H](C)O)NC(=O)[C@H](CCCNC(=N)N)NC(=O)CNC(=O)[C@H](CC(N)=O)NC(=O)[C@H](CC(C)C)NC1=O)C(=O)N[C@@H](CCCNC(=N)N)C(=O)N[C@@H](CCCNC(=N)N)C(=O)N[C@@H](CC(=O)O)C(=O)N[C@@H](CO)C(=O)N[C@@H](CC(=O)O)C(=O)N3)NC(=O)[C@H]([C@@H](C)CC)NC2=O` (stereo partly shown) [[^68Ga]NODAGA-R01-MG, metal not drawn], the SUV (clinical; both, kidney, average SUVmean, ~1 h p.i., cancer patients) was 19.9 ± 2.23 SUV, the SUV (clinical; both, normal pancreas, SUVmean, n = 5, ± S.D.) was 1.79 ± 0.47 SUV and the SUV (clinical; both, pancreatic tumour, average SUVmean, pancreatic cancer, pancreatic cancer patients) was 4.2 ± 0.1 SUV. The SUV (clinical; both, small intestines, average SUVmean, cancer patients) was 7.06 ± 2.74 SUV, the SUV (clinical; both, stomach, average SUVmean, cancer patients) was 8.87 ± 6.52 SUV and the SUV (clinical; head of pancreas, SUVmean, one pancreatic cancer patient (Fig 4d)) was ~3.1 SUV. For the same compound, the SUV (clinical; lung tumor, SUVmean, patient, squamous cell carcinoma of the lung) was 2.2 SUV, the SUV (clinical; tail of pancreas, SUVmean, one pancreatic cancer patient (Fig 4d)) was ~4.4 SUV and the SUV (clinical; tumor in tail of pancreas, 2.2 mCi, SUVmean, patient, ~50 minutes p.i.) was 4.3 SUV. The “ROI uptake Bl (bladder)” value ([1]; 9 min p.i.) was 1.885, the “ROI uptake Bn (osteogenic cells)” value ([1]; 9 min p.i.) was 0.4959 and the “ROI uptake Br (brain)” value ([1]; 9 min p.i.) was 0.05775. The “ROI uptake Brs (breast)” value ([1]; 9 min p.i.) was 0.428, the “ROI uptake HC (heart contents)” value ([1]; 9 min p.i.) was 1.158 and the “ROI uptake HW (heart wall)” value ([1]; 9 min p.i.) was 0.7507. For the same compound, the “ROI uptake LLI (lower large intestine)” value ([1]; 9 min p.i.) was 1.4, the “ROI uptake Ln (lung)” value ([1]; 9 min p.i.) was 0.3091 and the “ROI uptake Lv (liver)” value ([1]; 9 min p.i.) was 0.8628. The “ROI uptake Ms (muscle)” value ([1]; 9 min p.i.) was 0.6964, the “ROI uptake Pn (pancreas)” value ([1]; 9 min p.i.) was 1.576 and the “ROI uptake Pt (pituitary gland)” value ([1]; 9 min p.i.) was 2.269. For the same compound, the “ROI uptake RM (red marrow)” value ([1]; 9 min p.i.) was 0.2412, the “ROI uptake SI (small intestine)” value ([1]; 9 min p.i.) was 6.974 and the “ROI uptake Sk (skin)” value ([1]; 9 min p.i.) was 0.09851. For the same compound, the “ROI uptake Sp (spleen)” value ([1]; 9 min p.i.) was 0.7065, the “ROI uptake St (stomach)” value ([1]; 9 min p.i.) was 2.524 and the “ROI uptake TB (total body)” value ([1]; 9 min p.i.) was 0.6998. For the same compound, the “ROI uptake Tm (thymus)” value ([1]; 9 min p.i.) was 0.7337, the “ROI uptake Tr (thyroid)” value ([1]; 9 min p.i.) was 1.94 and the “ROI uptake ULI (upper large intestine)” value ([1]; 9 min p.i.) was 1.923. For the same compound, the “ROI uptake Bl (bladder)” value ([1]; 22 min p.i.) was 6.4, the “ROI uptake Bn (osteogenic cells)” value ([1]; 22 min p.i.) was 0.4058 and the “ROI uptake Br (brain)” value ([1]; 22 min p.i.) was 0.03902. For the same compound, the “ROI uptake Brs (breast)” value ([1]; 22 min p.i.) was 0.5151, the “ROI uptake HC (heart contents)” value ([1]; 22 min p.i.) was 0.7844 and the “ROI uptake HW (heart wall)” value ([1]; 22 min p.i.) was 0.4761. For the same compound, the “ROI uptake LLI (lower large intestine)” value ([1]; 22 min p.i.) was 1.495, the “ROI uptake Ln (lung)” value ([1]; 22 min p.i.) was 0.3044 and the “ROI uptake Lv (liver)” value ([1]; 22 min p.i.) was 0.7375. For the same compound, the “ROI uptake Ms (muscle)” value ([1]; 22 min p.i.) was 0.6868, the “ROI uptake Pn (pancreas)” value ([1]; 22 min p.i.) was 1.214 and the “ROI uptake Pt (pituitary gland)” value ([1]; 22 min p.i.) was 1.986. For the same compound, the “ROI uptake RM (red marrow)” value ([1]; 22 min p.i.) was 0.1015, the “ROI uptake SI (small intestine)” value ([1]; 22 min p.i.) was 7.153 and the “ROI uptake Sk (skin)” value ([1]; 22 min p.i.) was 0.09365. The “ROI uptake Sp (spleen)” value ([1]; 22 min p.i.) was 0.5971, the “ROI uptake St (stomach)” value ([1]; 22 min p.i.) was 2.337 and the “ROI uptake TB (total body)” value ([1]; 22 min p.i.) was 0.6751. The “ROI uptake Tm (thymus)” value ([1]; 22 min p.i.) was 0.7375, the “ROI uptake Tr (thyroid)” value ([1]; 22 min p.i.) was 0.7922 and the “ROI uptake ULI (upper large intestine)” value ([1]; 22 min p.i.) was 1.432. For the same compound, the “ROI uptake Bl (bladder)” value ([1]; 36 min p.i.) was 8.426, the “ROI uptake Bn (osteogenic cells)” value ([1]; 36 min p.i.) was 0.4395 and the “ROI uptake Br (brain)” value ([1]; 36 min p.i.) was 0.03531. The “ROI uptake Brs (breast)” value ([1]; 36 min p.i.) was 0.6278, the “ROI uptake HC (heart contents)” value ([1]; 36 min p.i.) was 0.722 and the “ROI uptake HW (heart wall)” value ([1]; 36 min p.i.) was 0.4798. For the same compound, the “ROI uptake LLI (lower large intestine)” value ([1]; 36 min p.i.) was 1.238, the “ROI uptake Ln (lung)” value ([1]; 36 min p.i.) was 0.3094 and the “ROI uptake Lv (liver)” value ([1]; 36 min p.i.) was 0.6906. For the same compound, the “ROI uptake Ms (muscle)” value ([1]; 36 min p.i.) was 0.7579, the “ROI uptake Pn (pancreas)” value ([1]; 36 min p.i.) was 1.296 and the “ROI uptake Pt (pituitary gland)” value ([1]; 36 min p.i.) was 2.22. The “ROI uptake RM (red marrow)” value ([1]; 36 min p.i.) was 0.2108, the “ROI uptake SI (small intestine)” value ([1]; 36 min p.i.) was 6.296 and the “ROI uptake Sk (skin)” value ([1]; 36 min p.i.) was 0.08072. For the same compound, the “ROI uptake Sp (spleen)” value ([1]; 36 min p.i.) was 0.426, the “ROI uptake St (stomach)” value ([1]; 36 min p.i.) was 2.242 and the “ROI uptake TB (total body)” value ([1]; 36 min p.i.) was 0.6996. For the same compound, the “ROI uptake Tm (thymus)” value ([1]; 36 min p.i.) was 0.6323, the “ROI uptake Tr (thyroid)” value ([1]; 36 min p.i.) was 0.7534 and the “ROI uptake ULI (upper large intestine)” value ([1]; 36 min p.i.) was 1.834. For the same compound, the “ROI uptake Bl (bladder)” value ([1]; 49 min p.i.) was 9.366.
